Like-named read-outs stand apart in the source and are kept apart here.
Legend:
Assay in all cases: BLI
[1] = molecular target: TFPI-Fc (human IgG-Fc-tagged TFPI without the GPI anchor) (UniProt P10646); conditions: for response: parent: est. 0.0, read off a plot
[2] = molecular target: Chicken TFPI-Fc (chicken); conditions: domain or fragment
[3] = molecular target: mTFPI-Fc (Fc-tagged mouse TFPI) (mouse) (UniProt O54819)
[4] = molecular target: mTFPI-Fc (Fc-tagged mouse TFPI) (UniProt O54819); conditions: 2000 nM fragment, read at end of association (~145 s), parent: est. 0.03, read off a plot
Sequence of mTFPI-Fc (Fc-tagged mouse TFPI) (O54819 29-217): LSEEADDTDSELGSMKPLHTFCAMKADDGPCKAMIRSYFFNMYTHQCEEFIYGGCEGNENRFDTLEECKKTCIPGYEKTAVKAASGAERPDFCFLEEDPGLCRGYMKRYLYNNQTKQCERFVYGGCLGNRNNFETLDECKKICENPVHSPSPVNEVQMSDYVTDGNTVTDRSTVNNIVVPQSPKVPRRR

Sequence of mTFPI-Fc (Fc-tagged mouse TFPI) (mouse) (O54819 29-217): as above
Sequence of TFPI-Fc (human IgG-Fc-tagged TFPI without the GPI anchor) (P10646 29-209): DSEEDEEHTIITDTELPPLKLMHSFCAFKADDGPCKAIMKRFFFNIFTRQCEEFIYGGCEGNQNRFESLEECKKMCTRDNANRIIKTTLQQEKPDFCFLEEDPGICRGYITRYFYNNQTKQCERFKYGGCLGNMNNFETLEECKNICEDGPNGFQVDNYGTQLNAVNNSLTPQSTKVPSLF

“TcdB2.1_(1285-1804) L1505P; C1509Y; E1547K; N1596K; Q1599K” gave a response [1] of 0.1 nm.
Work on TcdB2.1_(1285-1804) S1495I yielded a response [1] of 0.38 nm.
“TcdB2.1_(1285-1804) S1495I; L1505P; C1509Y; E1547K” showed a response [1] of 0.62 nm.
For “TcdB2.1_(1285-1804) S1495I; L1505P; C1509Y; N1596K; Q1599K”, the response [1] was 0.66 nm.
For TcdB2.11_(1286-1805), the Kd ([1]; domain or fragment) was 133 nM, the koff ([1]; domain or fragment) was 0.0109 s⁻¹ and the Kd [2] was 205 nM. It also gave a koff [2] of 0.0165 s⁻¹, a Kd ([3]; domain or fragment) of 90.9 nM and a koff ([3]; domain or fragment) of 0.00623 s⁻¹.
For “TcdB4.2_(1286-1805) (domain or fragment)”, the Kd [1] was 50 nM and the Kd [3] was 24 nM.
In the case of TcdB11.2_(1285-1804) F1506S; D1511Y, the response [4] is reported as 0.74 nm.
“TcdB11.2_(1285-1804) F1506S; D1511Y; F1597S; V1598L” gave a response [4] of 0.67 nm.
In the case of TcdB11.2_(1285-1804) F1597S; V1598L, the response [4] is reported as 0.13 nm.

From PMC9646764
